How the values were obtained:
[1] = molecular target: Tri-domain miniature fibroin RP-LK-CTDMi of minor ampullate spidroin from N. antipodiana (Nephila antipodiana); assay: SEC; Superdex 75 PG, 120 ml, 10 mM sodium phosphate pH 6.8 without NaCl, 1 ml/min; apparent molecular weight against standards
[2] = molecular target: C-terminal domain of minor ampullate spidroin (CTDMi) from N. antipodiana (Nephila antipodiana); assay: as above

Substance	stoichiometry N [1]	stoichiometry N [2]
Tri-domain miniature fibroin RP-LK-CTDMi of minor ampullate spidroin from N. antipodiana (domain or fragment)	2	–
C-terminal domain of minor ampullate spidroin (CTDMi) from N. antipodiana (domain or fragment)	–	2
